Experimental data taken from patent publication US20070231812A1, “Method of Screening Antidiabetic Agents” (priority 2004, published 2007).

Legend:
SOCS-2 promoter = SOCS-2 promoter reporter (luciferase) activity in HepG2 cells with or without IL-6; assay type: cell-based, human; conditions: IL-6 stimulation 3 hours, standardized by β-galactosidase activity, relative to absence of IL-6
Method: On the basis of the registered sequence (NCBI Reference Sequences No. NM_003877) of human SOCS-2, a genomic sequence which accords with the sequence was specified as the sequence of NCBI GenBank accession No. NC—000012.5—93000001—94000000. To obtain a DNA consisting of nucleotides 893,596-898,678 of NC—000012.5—93000001—94000000, which was considered the promoter region of human SOCS-2, i.e., a DNA consisting of the nucleotide sequence of SEQ ID NO: 3, the first PCR was carried out using synthetic oligo DNAs [5′-gtg[…]-3′ (SEQ ID NO: 8) and 5′-gtg[…]-3′ (SEQ ID NO: 9)] having restriction enzyme sites […] and NheI, respectively, and an LA Taq (TAKARA; catalogue code RR002A). The resulting PCR product was diluted to 1/50 with sterile water, and the second PCR was carried out using the diluted solution as a template, synthetic oligo DNAs [5′-gtg[…]-3′ (SEQ ID NO: 10) and 5′-gtg[…]-3′ (SEQ ID NO: 11)], and an LA Taq (TAKARA; catalogue code RR002A). […]
HepG2 cells (ATCC accession No. HB-8065) was transformed with the SOCS-2 reporter vector or the control vector prepared in Example 3(1) to measure the activity when stimulated with or without IL-6. […] The cells were lysed with a cell lysis solution LCβ (Toyo Ink MFG), and a luciferase activity was measured using a PicaGene coloring kit (Toyo Ink MFG; 309-04321). […]

endogenous SOCS-2 gene = test: Endogenous SOCS-2 mRNA in HepG2 cells by quantitative PCR with or without IL-6; assay type: cell-based, human; conditions: IL-6 10 ng/mL, 3 hours, compensated with G3PDH, relative to absence of IL-6
Method: First, an endogenous SOCS-2 promoter activity was measured. Since a stimulation capable of promoting the SOCS-2 promoter activity in pancreatic β cells was unknown, an amount of SOCS-2 mRNA was measured when stimulated by IL-6, which was a typical stimulation capable of increasing a transcriptional activity of STAT1, STAT3, or STAT5. It is considered that STAT1, STAT3, and STAT5 transduce an external signal, and finally promote a SOCS-2 transcriptional activity. More particularly, human HepG2 cells in which the IL-6 reactivity was confirmed were used to measure and compare amounts of endogenous SOCS-2 mRNA expressed when stimulated with or without IL-6 stimulation. The amount of gene expressed was compensated by measuring an amount of a G3PDH (Glyceraldehyde 3-phosphate dehydrogenase) gene expressed, at the same time. […] In this measuring system, an amount of fluorescence from a SYBR Green I dye incorporated into double-stranded DNAs amplified by PCR was detected and quantified in real time, to determine the amount of gene expressed. […]
The amount of […] SOCS-2 gene expressed was compensated with that of the G3PDH gene expressed in accordance with the following equation: C=A/B [C: Compensated amount of SOCS-2 expressed, A: Measured value of the SOCS-2 gene expressed, and B: Measured value of the G3PDH gene expressed]

MIN6B1 cells = test: Insulin secreted from MIN6B1 cells overexpressing SOCS-2; assay type: cell-based, mouse; conditions: 20 minutes, adenovirus infected MIN6B1 cells
Method: Mouse pancreatic β cell line MIN6B1 cells [Endocrinol. (2003) 144,. 1368-1379] were infected with SOCS-2/pAdTrack-CMV or pAdTrack-CMV (control) to prepare pancreatic β cells overexpressing SOCS-2, as described below.
MIN6B1 cells (2×10^5 cells) were seeded on a 24-well plate, and cultured for 24 hours in 0.5 mL of a minimum essential medium DMEM (GIBCO) containing 10% fetal bovine serum (SIGMA). SOCS-2/pAdTrack-CMV or pAdTrack-CMV (control) was added to each medium at a concentration of 4×10^8 pfu/well.
After 14 hours from the adenovirus infection of pancreatic β cells, each medium was aspirated, and cells were washed three times with KRB-HEPES (140 mmol/L NaCl, 3.6 mmol/L KCl, 0.5 mmol/L NaH2PO4, 0.5 mmol/L MgSO4, 1.5 mmol/L-CaCl2, 10 mmol/L Hepes, 2 mmol/L NaHCO3, and 0.1% BSA, pH 7.4), and incubated in 2.8 mmol/L glucose-containing KRB-HEPES (1 mL) at 37° C. for 1 hour in the presence of 5% CO2.
After the buffer was aspirated, 2.8 mmol/L or 16.8 mmol/L glucose-containing KRB-HEPES was added. The cells were further incubated at 37° C. for 20 minutes in the presence of 5% CO2, and an amount of insulin secreted into the supernatant was measured.
A commercially available insulin radioimmunoassay kit (Rat insulin [125I] RIA system; Amersham Bioscience) was used for the measurement of the amount of insulin secreted.

[1] = test system: rat pancreatic Langerhans islets; test: Insulin secreted from rat pancreatic Langerhans islets overexpressing SOCS-2; assay type: cell-based; conditions: 90 minutes, adenovirus infected rat islets
Method: After 4 male rats (6-8 weeks old, 350 to 450 g in weight) were anesthetized, the abdomen was incised and exposed. A bile duct of the liver was ligated, and blood was drawn from the heart. From the bile duct, 5 mL of HBSS-HEPES (136.8 mmol/L NaCl, 5.3 mmol/L KCl, 0.8 mmol/L MgSO4, 1 mmol/L Na2HPO4, 0.44 mmol/L KH2PO4, 4.1 mmol/L NaHCO3, 10 mmol/L Hepes, 1 mmol/L CaCl2, and 2 mmol/L glucose, pH 7.2) supplemented with 0.02% Liberase (Roche Diagnostic) was injected using a winged needle. The pancreas was removed and transferred to a tube containing 5 mL of HBSS-HEPE, and incubated at 37° C. for 20 minutes. After the incubation, the whole was stirred, and ice-cold HBSS-HEPES-0.35% BSA was added. The mixture was centrifuged at 1500 rpm for 1 minute to remove the supernatant. To the precipitated tissues, 10 mL of HBSS-HEPES-0.35% BSA was added, and the tissues were suspended using a needle. This washing step was repeated twice. After the centrifugation, the supernatant was removed, and 10 mL of a 8.3% Ficoll-Conray solution was added and suspended. Further, 10 mL of HBSS-HEPES-0.35% BSA was added, and the whole was centrifuged for 20 minutes. After the centrifugation, pancreatic Langerhans islets between two liquid layers were collected. To the collected pancreatic Langerhans islets, 10 mL of HBSS-HEPES-0.35% BSA was added, and the whole was centrifuged. […]

[2] = 16.8 mmol/L glucose, p<0.01 vs control

**Q.** Which “SOCS-2 reporter activity, factor of increase” value (SOCS-2 promoter) does the source give for “IL-6: typical stimulation capable of increasing a transcriptional activity of STAT1, STAT3, or STAT5 (R&D Systems)” here?
**A.** The value was “approximately 2”.

**Q.** What about the “expression of the endogenous SOCS-2 gene, factor of increase” value (endogenous SOCS-2 gene) of the same molecule?
**A.** Its value is “approximately 2”.

B1: SOCS-2: mouse SOCS-2 (amino acid sequence of SEQ ID NO: 2) overexpressed in pancreatic β cells via adenovirus vector pAdTrack-CMV (protein, listed as Mus sp.)
chain: MTLRCLEPSGNGADRTRSQWGTAGLPEEQSPEAARLAKALRELSQTGWYWGSMTVNEAKEKLKEAPEGTFLIRDSSHSDYLLTISVKTSAGPTNLRIEYQDGKFRLDSIICVKSKLKQFDSVVHLIDYYVQMCKDKRTGPEAPRNGTVHLYLTKPLYTSAPTLQHFCRLAINKCTGTIWGLPLPTRLKDYLEEYKFQV
**Q.** For B1, which “insulin secretion versus control” value (MIN6B1 cells; 2.8 mmol/L glucose) is on record?
**A.** Its value is “no difference was observed”.

**Q.** What about the “insulin secretion versus control” value (MIN6B1 cells; [2]) of the same molecule?
**A.** The value was “inhibited the activity of promoting insulin secretion”.

**Q.** What about the “insulin secretion versus control” value ([1]; 2.8 mmol/L glucose) of the same molecule?
**A.** Its value is “no difference was observed”.

**Q.** What about the “insulin secretion versus control” value [1, 2] of the same molecule?
**A.** The value was “inhibited the activity of promoting insulin secretion”.
